Where two headings read alike, the source gives them in different places.
Key:
Test in all cases: MST
[1] = target: NanoTemper RED-labeled FVIIa (FVIIa-R) (human) (UniProt P08709)
[2] = target: NanoTemper RED-labeled FVIIa (FVIIa-R) (human) (UniProt P08709); remark: listed apart in the source
[3] = target: NanoTemper RED-labeled FVIIa (FVIIa-R) (human) (UniProt P08709); remark: listed apart in the source
[4] = target: NanoTemper RED-labeled FVIIa (FVIIa-R) (human) (UniProt P08709); remark: listed apart in the source
[5] = target: NanoTemper RED-labeled FVIIa (FVIIa-R) (human) (UniProt P08709); remark: listed apart in the source
[6] = target: NanoTemper RED-labeled FVIIa (FVIIa-R) (human) (UniProt P08709); remark: listed apart in the source
[7] = target: NanoTemper RED-labeled FVIIa (FVIIa-R) (human) (UniProt P08709); remark: listed apart in the source
[8] = target: NanoTemper RED-labeled FVIIa (FVIIa-R) (human) (UniProt P08709); remark: listed apart in the source
[9] = target: NanoTemper RED-labeled FVIIa (FVIIa-R) (human) (UniProt P08709); remark: listed apart in the source
[10] = target: NanoTemper RED-labeled FVIIa (FVIIa-R) (human) (UniProt P08709); remark: listed apart in the source
[11] = target: NanoTemper RED-labeled FVIIa (FVIIa-R) (human) (UniProt P08709); remark: listed apart in the source
[12] = target: NanoTemper RED-labeled FVIIa (FVIIa-R) (human) (UniProt P08709); remark: listed apart in the source
[13] = target: NanoTemper RED-labeled FVIIa (FVIIa-R) (human) (UniProt P08709); remark: listed apart in the source

UniProt P08709, sequence (P08709 61-212, chain 1 of 2): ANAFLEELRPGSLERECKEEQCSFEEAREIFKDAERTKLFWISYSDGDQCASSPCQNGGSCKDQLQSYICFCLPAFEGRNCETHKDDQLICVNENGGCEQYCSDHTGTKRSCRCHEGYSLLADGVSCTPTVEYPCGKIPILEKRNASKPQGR
UniProt P08709, sequence (P08709 213-466, chain 2 of 2): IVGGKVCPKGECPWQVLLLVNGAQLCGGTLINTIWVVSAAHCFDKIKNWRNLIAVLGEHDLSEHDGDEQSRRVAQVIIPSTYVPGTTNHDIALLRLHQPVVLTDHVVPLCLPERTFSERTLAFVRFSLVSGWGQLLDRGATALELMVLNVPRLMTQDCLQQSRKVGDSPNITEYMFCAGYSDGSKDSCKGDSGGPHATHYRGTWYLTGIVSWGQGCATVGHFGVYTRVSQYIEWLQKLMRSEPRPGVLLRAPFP

Q: Which Kd [1] does the source give for “gCΔ457t (soluble recombinant HSV1 glycoprotein C) (from UniProt P10228 25-511) (domain or fragment)” here?
A: 1000 nM

Q: And the Kd [2]?
A: 400 nM

Q: What about the Kd [3] of the same substance?
A: 2000 nM

Q: What about the Kd [4] of the same substance?
A: 2900 nM

Q: And the Kd [5]?
A: 800 nM

Q: What about the Kd [6] of the same substance?
A: 2200 nM

Q: And the Kd [7]?
A: 600 nM

Q: What about the Kd [8] of the same substance?
A: 900 nM

Q: And the Kd [9]?
A: > 13000 nM

Q: And the Kd [10]?
A: 2700 nM

Q: What about the Kd [11] of the same substance?
A: 1600 nM

Q: And the Kd [12]?
A: > 12000 nM

Q: What about the Kd [13] of the same substance?
A: 1300 nM
